Drawing on PMC12285222, this text covers stoichiometry N for one substance.

For this assay, the target named is trypsin-processed Vip3Cb1 toxin (Paenibacillus sp. strain DSC004343). The experiment in a line: cryo-EM structure.

For “trypsin-processed Vip3Cb1 toxin (complex)”, the stoichiometry N (as a rule, a count of units in the complex or per binding partner) was determined as 4.
